Experimental data: patent US20220017622A1 (Pfizer, published 2022)
Positions count from the first letter of the chain named. Blank lines part the entries; values can stand above or below the binder they belong to.

Legend:
human B7-H4 on cells = target: T1, human B7-H4 on cells (human, UniProt Q7Z7D3 25-282); test: cell-based or functional assay
T1 sequence (looked up): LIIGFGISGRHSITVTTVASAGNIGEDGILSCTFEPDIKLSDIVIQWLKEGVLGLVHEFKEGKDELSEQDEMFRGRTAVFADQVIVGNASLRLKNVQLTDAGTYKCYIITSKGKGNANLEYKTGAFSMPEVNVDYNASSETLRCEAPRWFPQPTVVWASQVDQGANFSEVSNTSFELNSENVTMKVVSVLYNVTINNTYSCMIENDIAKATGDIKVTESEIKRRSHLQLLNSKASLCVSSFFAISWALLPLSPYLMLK

[1] = target: T2, human B7-H4 extracellular domain (human, UniProt Q7Z7D3 29-258); test: SPR 25 C; bispecific on anti-hFc chip, ECD analyte
T2 construct: Soluble ECD used as SPR analyte; also called huB7-H4 ECD; huB7-H4
T2 sequence: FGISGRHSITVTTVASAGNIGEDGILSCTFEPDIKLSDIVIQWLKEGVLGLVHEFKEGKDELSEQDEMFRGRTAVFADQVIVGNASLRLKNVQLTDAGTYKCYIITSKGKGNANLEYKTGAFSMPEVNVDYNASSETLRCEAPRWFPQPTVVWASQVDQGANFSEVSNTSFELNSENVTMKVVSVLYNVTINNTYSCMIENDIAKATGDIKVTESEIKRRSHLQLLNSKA

[2] = target: T3, cyno B7-H4 extracellular domain (cyno, UniProt Q7Z7D3 29-258 (human entry)); test: SPR 25 C; bispecific on anti-hFc chip, ECD analyte
T3 construct: Soluble ECD used as SPR analyte; also called cyB7-H4 ECD; cyB7-H4
T3 sequence: T2 sequence with L49I

[3] = target: T4, mouse B7-H4 extracellular domain (mouse, UniProt Q7TSP5 29-258); test: SPR 25 C; bispecific on anti-hFc chip, ECD analyte
T4 construct: Soluble ECD used as SPR analyte; also called muB7-H4 ECD; muB7-H4
T4 sequence: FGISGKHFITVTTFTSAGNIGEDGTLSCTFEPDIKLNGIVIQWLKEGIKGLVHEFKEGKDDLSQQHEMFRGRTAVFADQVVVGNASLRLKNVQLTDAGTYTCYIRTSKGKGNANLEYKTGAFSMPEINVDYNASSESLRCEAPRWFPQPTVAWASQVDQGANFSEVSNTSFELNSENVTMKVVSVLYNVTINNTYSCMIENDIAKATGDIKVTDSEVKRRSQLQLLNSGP

[4] = target: T2, human B7-H4 extracellular domain; test: SPR 37 C; bispecific on anti-hFc chip, ECD analyte
[5] = target: T3, cyno B7-H4 extracellular domain; test: SPR 37 C; bispecific on anti-hFc chip, ECD analyte
[6] = target: T2, human B7-H4 extracellular domain; test: SPR 37 C; bispecific on anti-hFc chip, ECD analyte; remark: listed apart in the source
[7] = target: T3, cyno B7-H4 extracellular domain; test: SPR 37 C; bispecific on anti-hFc chip, ECD analyte; remark: listed apart in the source
[8] = target: T4, mouse B7-H4 extracellular domain; test: SPR 37 C; bispecific on anti-hFc chip, ECD analyte
[9] = target: T5, rat B7-H4 extracellular domain (rat, UniProt Q501W4 29-257); test: SPR 37 C; bispecific on anti-hFc chip, ECD analyte
T5 construct: Soluble ECD used as SPR analyte; also called ratB7-H4 ECD
T5 sequence: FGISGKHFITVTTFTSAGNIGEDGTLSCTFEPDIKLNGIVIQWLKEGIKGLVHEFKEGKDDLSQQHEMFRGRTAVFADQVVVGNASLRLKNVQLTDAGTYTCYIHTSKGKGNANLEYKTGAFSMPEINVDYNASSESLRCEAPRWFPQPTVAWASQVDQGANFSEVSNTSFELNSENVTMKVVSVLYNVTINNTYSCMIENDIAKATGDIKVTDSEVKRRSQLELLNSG

[10] = target: T6, human CD3 (delta/epsilon heterodimer) (human, UniProt P07766 23-126; P04234 22-105); test: SPR 25 C; CD3 delta/epsilon on anti-His chip, bispecific analyte
T6 construct: captured on an anti-His chip, so it carries a His tag; also called huCD3
T6 sequence (P07766 23-126, stated change not applied, chain 1 of 2): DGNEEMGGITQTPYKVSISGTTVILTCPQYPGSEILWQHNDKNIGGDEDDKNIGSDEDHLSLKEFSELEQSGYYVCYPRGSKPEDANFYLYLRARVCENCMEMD
T6 sequence (P04234 22-105, stated change not applied, chain 2 of 2): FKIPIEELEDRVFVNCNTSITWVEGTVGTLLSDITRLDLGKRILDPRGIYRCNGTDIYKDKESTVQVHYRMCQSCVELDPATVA

[11] = target: T7, cyno CD3 (delta/epsilon heterodimer) (cyno, UniProt Q95LI5 22-117; Q95LI8 22-105); test: as above
T7 construct: also called cyCD3
T7 sequence (Q95LI5 22-117, stated change not applied, chain 1 of 2): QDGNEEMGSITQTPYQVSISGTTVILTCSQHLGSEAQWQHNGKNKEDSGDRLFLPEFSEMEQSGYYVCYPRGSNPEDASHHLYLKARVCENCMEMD
T7 sequence (Q95LI8 22-105, stated change not applied, chain 2 of 2): as the sequence (P04234 22-105, stated change not applied, chain 2 of 2) above, with I5V, N15K, I20V, S32T, D33N, I34N, T64A, S74N, V83L counted along it

[12] = target: T6, human CD3 (delta/epsilon heterodimer); test: SPR 37 C; CD3 delta/epsilon on anti-His chip, bispecific analyte
[13] = target: T7, cyno CD3 (delta/epsilon heterodimer); test: as above
[14] = target: T2, human B7-H4 extracellular domain; test: SPR 37 C; bispecific (IgG2 scaffold) on anti-hFc chip, ECD analyte
[15] = target: T6, human CD3 (delta/epsilon heterodimer); test: SPR 37 C; CD3 delta/epsilon on anti-His chip, bispecific (IgG2 scaffold) analyte
[16] = target: T6, human CD3 (delta/epsilon heterodimer); test: SPR 37 C; CD3 delta/epsilon on anti-His chip, bispecific analyte; CD3 variant 2B5v6
[17] = target: T6, human CD3 (delta/epsilon heterodimer); test: SPR 37 C; CD3 delta/epsilon on anti-His chip, bispecific analyte; CD3 variant 2B5v598
[18] = target: T6, human CD3 (delta/epsilon heterodimer); test: SPR 37 C; CD3 delta/epsilon on anti-His chip, bispecific analyte; CD3 variant 2B5c707

Kd [1]: 6.83 nM
koff [1]: 0.0012 s⁻¹
kon [1]: 176000 M⁻¹ s⁻¹
Kd [2]: 9.29 nM
koff [2]: 0.0012 s⁻¹
kon [2]: 129000 M⁻¹ s⁻¹
Kd [3]: 299 nM
koff [3]: 0.0299 s⁻¹
kon [3]: 100000 M⁻¹ s⁻¹
Kd [4]: 21.9 nM
koff [4]: 0.00602 s⁻¹
kon [4]: 275000 M⁻¹ s⁻¹
Kd [5]: 30.9 nM
koff [5]: 0.00581 s⁻¹
kon [5]: 188000 M⁻¹ s⁻¹
Kd [6]: 8.86 nM
koff [6]: 0.00509 s⁻¹
kon [6]: 575000 M⁻¹ s⁻¹
Kd [7]: 8.81 nM
koff [7]: 0.00487 s⁻¹
kon [7]: 553000 M⁻¹ s⁻¹
Kd [8]: 776 nM
koff [8]: 0.134 s⁻¹
kon [8]: 173000 M⁻¹ s⁻¹
Kd [9]: 1120 nM
koff [9]: 0.131 s⁻¹
kon [9]: 117000 M⁻¹ s⁻¹
Kd [10]: 7.38 nM
koff [10]: 0.00559 s⁻¹
kon [10]: 758000 M⁻¹ s⁻¹
Kd [11]: 8.33 nM
koff [11]: 0.00534 s⁻¹
kon [11]: 642000 M⁻¹ s⁻¹
Kd [12]: 41.9 nM
koff [12]: 0.0234 s⁻¹
kon [12]: 558000 M⁻¹ s⁻¹
Kd [13]: 47.1 nM
koff [13]: 0.0239 s⁻¹
kon [13]: 507000 M⁻¹ s⁻¹
Kd [14]: 18.2 nM
koff [14]: 0.00582 s⁻¹
kon [14]: 319000 M⁻¹ s⁻¹
Kd [15]: 56.9 nM
koff [15]: 0.0336 s⁻¹
kon [15]: 592000 M⁻¹ s⁻¹
Kd [16]: 56.9 nM
koff [16]: 0.0336 s⁻¹
kon [16]: 592000 M⁻¹ s⁻¹
B1: B7-H4xCD3 bispecific antibody 0074 (bispecific antibody, IgG2)
heavy 1: QVQLQQWGAGLLKPSETLSLTCAVYGGSFSGYYWNWIRQPPGKGLEWIGEINHSGSTKYNPSLKSRVTISGDTSKNQFSLKLNSVTAADTAVYYCVRGLYNWNVDSWGQGTLVTVSSASTKGPSVFPLAPCSRSTSESTAALGCLVKDYFPEPVTVSWNSGALTSGVHTFPAVLQSSGLYSLSSVVTVPSSNFGTQTYTCNVDHKPSNTKVDKTVERKCEVECPECPAPPVAGPSVFLFPPKPKDTLMISRTPEVTCVVVAVSHEDPEVQFNWYVDGVEVHNAKTKPREEQFNSTFRVVSVLTVVHQDWLNGKEYKCKVSNKGLPSSIEKTISKTKGQPREPQVYTLPPSREEMTKNQVSLTCEVKGFYPSDIAVEWESNGQPENNYKTTPPMLDSDGSFFLYSKLTVDKSRWQQGNVFSCSVMHEALHNHYTQKSLSLSPGK
light 1: DIQMTQSPSSLSASVGDRVTITCRASQGIRNDLGWYQQKPGKAPKRLIYVASSLQSGVPSRFSGSGSGTEFTLTISSLQPEDFATYYCLQHNSYPYTFGQGTKLEIKRTVAAPSVFIFPPSDEQLKSGTASVVCLLNNFYPREAKVQWKVDNALQSGNSQESVTEQDSKDSTYSLSSTLTLSKADYEKHKVYACEVTHQGLSSPVTKSFNRGEC
heavy 2: EVQLVESGGGLVQPGGSLRLSCAASGFTFSDYYMTWVRQAPGKGLEWVAFIRNQARGYTSDHNPSVKGRFTISRDNAKNSLYLQMNSLRAEDTAVYYCARDRPSYYVLDYWGQGTTVTVSSASTKGPSVFPLAPCSRSTSESTAALGCLVKDYFPEPVTVSWNSGALTSGVHTFPAVLQSSGLYSLSSVVTVPSSNFGTQTYTCNVDHKPSNTKVDKTVERKCRVRCPRCPAPPVAGPSVFLFPPKPKDTLMISRTPEVTCVVVAVSHEDPEVQFNWYVDGVEVHNAKTKPREEQFNSTFRVVSVLTVVHQDWLNGKEYKCKVSNKGLPSSIEKTISKTKGQPREPQVYTLPPSREEMTKNQVSLTCLVKGFYPSDIAVEWESNGQPENNYKTTPPMLDSDGSFFLYSRLTVDKSRWQQGNVFSCSVMHEALHNHYTQKSLSLSPGK
light 2: DIQMTQSPSSLSASVGDRVTITCTSSQSLFNVRSQKNYLAWYQQKPGKAPKLLIYWASTRESGVPSRFSGSGSGTDFTLTISSLQPEDFATYYCKQSYDLFTFGGGTKVEIKRTVAAPSVFIFPPSDEQLKSGTASVVCLLNNFYPREAKVQWKVDNALQSGNSQESVTEQDSKDSTYSLSSTLTLSKADYEKHKVYACEVTHQGLSSPVTKSFNRGEC
notes: Chains 1-2: B7-H4 arm; chains 3-4: CD3 arm; IgG2 EEE/RRR; also called anti-B7-H4 clone 28D10; CD3 variant 2B5v6
T cell mediated tumor cell killing EC50, HCC1954-Luc (human B7-H4 on cells): 73 nM
T cell mediated tumor cell killing, MDA-MB-468 (human B7-H4 on cells): 42
T cell mediated tumor cell killing, OVCAR3-Luc (human B7-H4 on cells): 31
T cell mediated tumor cell killing, T47D (human B7-H4 on cells): 224

Kd [17]: 124 nM
koff [17]: 0.0254 s⁻¹
kon [17]: 205000 M⁻¹ s⁻¹
B2: B7-H4xCD3 bispecific antibody 0087 (bispecific antibody, IgG2)
heavy 1: QVQLQQWGAGLLKPSETLSLTCAVYGGSFSGYYWNWIRQPPGKGLEWIGEINHSGSTKYNPSLKSRVTISGDTSKNQFSLKLNSVTAADTAVYYCVRGLYNWNVDSWGQGTLVTVSSASTKGPSVFPLAPCSRSTSESTAALGCLVKDYFPEPVTVSWNSGALTSGVHTFPAVLQSSGLYSLSSVVTVPSSNFGTQTYTCNVDHKPSNTKVDKTVERKCEVECPECPAPPVAGPSVFLFPPKPKDTLMISRTPEVTCVVVAVSHEDPEVQFNWYVDGVEVHNAKTKPREEQFNSTFRVVSVLTVVHQDWLNGKEYKCKVSNKGLPSSIEKTISKTKGQPREPQVYTLPPSREEMTKNQVSLTCEVKGFYPSDIAVEWESNGQPENNYKTTPPMLDSDGSFFLYSKLTVDKSRWQQGNVFSCSVMHEALHNHYTQKSLSLSPG
light 1: B1 light 1
heavy 2: EVQLVESGGGLVQPGGSLRLSCAASGFTFSDYYMTWVRQAPGKGLEWVAFIRNQDRGYTSDHQPSVKGRFTISRDNAKNSLYLQMNSLRAEDTAVYYCARDRPSYYVLDYWGQGTTVTVSSASTKGPSVFPLAPCSRSTSESTAALGCLVKDYFPEPVTVSWNSGALTSGVHTFPAVLQSSGLYSLSSVVTVPSSNFGTQTYTCNVDHKPSNTKVDKTVERKCRVRCPRCPAPPVAGPSVFLFPPKPKDTLMISRTPEVTCVVVAVSHEDPEVQFNWYVDGVEVHNAKTKPREEQFNSTFRVVSVLTVVHQDWLNGKEYKCKVSNKGLPSSIEKTISKTKGQPREPQVYTLPPSREEMTKNQVSLTCLVKGFYPSDIAVEWESNGQPENNYKTTPPMLDSDGSFFLYSRLTVDKSRWQQGNVFSCSVMHEALHNHYTQKSLSLSPG
light 2: B1 light 2 with S26D, Q35G, T59D
notes: Chains 1-2: B7-H4 arm; chains 3-4: CD3 arm; IgG2; also called CD3 variant 2B5v598
T cell mediated tumor cell killing EC50, HCC1954-Luc (human B7-H4 on cells): 57 nM
T cell mediated tumor cell killing, MDA-MB-468 (human B7-H4 on cells): 109

Kd [18]: 134 nM
koff [18]: 0.0689 s⁻¹
kon [18]: 511000 M⁻¹ s⁻¹
B3: B7-H4xCD3 bispecific antibody 0088 (bispecific antibody, IgG2)
heavy 1: B2 heavy 1
light 1: B1 light 1
heavy 2: B2 heavy 2 with D55A, Q63N, P103H
light 2: B1 light 2 with D99Y
notes: Chains 1-2: B7-H4 arm; chains 3-4: CD3 arm; IgG2; also called CD3 variant 2B5c707
T cell mediated tumor cell killing EC50, HCC1954-Luc (human B7-H4 on cells): 140 nM
T cell mediated tumor cell killing, MDA-MB-468 (human B7-H4 on cells): 655
